{"source": "patent US20240173424A1", "about": "“ANTI-NECTIN-4-ANTIBODY EXATECAN CONJUGATES” (EMERGENCE THERAPEUTICS AG, priority 2021, published 2024)", "assay_type_in_all_cases": "binding", "key": {"[1]": {"tested_on": "human Nectin-4", "test": "Flow cytometry of MDA-MB231 transfected with Flag-tagged Nectin-4", "settings": "MDA-MB231 transfected with Nectin-4, 0.3 ng/ml-5 μg/mL", "method": "Detection by flow cytometry. • Flow cytometry analysis of MDA-MB231 transfected with the N-terminal Flag-tagged epitope of Nectin-4 using a dose range (0.3 ng/ml-5 μg/mL) of Ch-15A7.5 or Ch-5A12.2 antibodies Parental MDA-MB231 cells are included as controls. Cells were then stained with phycoerythrin conjugate goat anti human Fc antibody. The normalized mean fluorescence intensity is shown. Inlay: staining of parental MDA-MB231 cells with anti Nectin-1, -2 and -3 mAbs ([…]). Mean fluorescence intensity is represented.\nHuman breast carcinoma cell line MDA-MB231 (ATCC, Manassas, VA) was cultured in DMEM supplemented with 10% fetal bovine serum, 50 IU/mL penicillin, 50 μg/mL streptomycin and 2 mM glutamine. The cells were transfected with expression vector p3XFLR4.C1 containing a PVRL4 cDNA. Human triple negative breast cancer cell line SUM190PT (BioIVT, Westbury, NY) was cultures in Ham's F12 medium with 5% fetal bovine serum, 1% non-essential amino acids, 1% Hepes, 1% insulin, 1 μg/mL hydrocortisone, 6.8 ng/ml Triiodo L-tyrosine, 100 IU/mL penicillin, 100 μg/mL streptomycin and 2 mM glutamine. Chinese hamster ovary CHO cell line was cultured in DMEM supplemented with 10% fetal bovine serum, 100 IU/mL penicillin, 100 μg/mL streptomycin and 2 mM glutamine. […]"}, "[2]": {"tested_on": "human Nectin-4", "test": "ELISA on coated Nectin-4 Fc fusion proteins (Nec4-VCC, Nec4-V)", "settings": "ELISA", "method": "(§1) Detection by ELISA. • Ninety-six-wells plates were coated, as indicated, with 5 μg/mL Nectin-1 extracellular domain Fc fusion recombinant protein (Nec1-VCC), or Nectin-4 IgV-like domain Fc fusion recombinant protein (Nec4-V), or Nectin-4 extracellular domain Fc fusion recombinant protein (Nec4-VCC) overnight at 4° ° C.\nFIG. 3: Characterization of Ch-15A7.5 epitope. Competition assay was performed by ELISA. • Ninety-six-wells plates were coated with 5 μg/mL of Nectin-4 extracellular domain Fc fusion recombinant protein (Nec4-VCC) overnight at 4° C. Binding of peroxidase-conjugated Ch-15A7.5 mAb (5 μg/mL) was measured in presence of increasing concentrations (2.75 ng/ml-6 μg/mL) of Rituximab, Ch-15A7 mAb, Enfortumab (HA22), Ch-N41 mAb and Ch-14A5 mAb.\n(§2) A sandwich enzyme-linked immunosorbent assay was used to control specificity of Ch-15A7.5 antibody and to perform competition assays between different mAbs. Ninety-six-wells plates were coated with 10 nM of Nectin-4-VCC-Fc, Nectin-1-VCC-Fc (entire extracellular part) or Nectin-4-V-Fc (comprising only the IgV domain) overnight at +4° C. After washes and saturation with PBS 1% BSA, cells were incubated for 2 hours at 25° C. with 10 nM of peroxidase-conjugated Ch-15A7.5 mAb. In the case of competition, binding of 0.5 nM of peroxidase conjugated Ch-15A7.5 mAb was measured in the presence of variable concentration (0.018 nM to 40 nM) of “cold” mAb. One hundred μL of peroxidase substrate was added (One Step ABST, Pierce), and OD was red at 405 nm."}, "[3]": {"target": "T1, Nectin-1 extracellular domain (Homo sapiens, UniProt Q15223)", "T1 construct": "Nectin-1 extracellular domain Fc fusion recombinant protein (Nec1-VCC)", "T1 sequence (Q15223 31-355 limits assumed)": "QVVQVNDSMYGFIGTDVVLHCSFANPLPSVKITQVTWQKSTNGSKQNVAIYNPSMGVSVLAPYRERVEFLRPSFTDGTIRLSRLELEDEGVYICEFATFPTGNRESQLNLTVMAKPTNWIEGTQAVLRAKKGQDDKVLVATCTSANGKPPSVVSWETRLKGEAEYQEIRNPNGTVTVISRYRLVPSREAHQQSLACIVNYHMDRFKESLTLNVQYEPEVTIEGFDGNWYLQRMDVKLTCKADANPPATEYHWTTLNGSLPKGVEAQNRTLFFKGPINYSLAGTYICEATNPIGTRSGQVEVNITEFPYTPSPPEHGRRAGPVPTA", "test": "ELISA on coated Nectin-1 extracellular domain Fc fusion protein (Nec1-VCC)", "method": "as §1, §2"}, "[4]": {"target": "T2, Nectin-4 expressed by normal differentiated human keratinocytes (NHEK) (Homo sapiens, UniProt Q96NY8)", "T2 construct": "Cells or cell lines (10,000-50,000) expressing Nectin-4 (naturally or transfected); endogenous in cells; host or cells: NHEK, differentiated with 0.1 mM CaCl2", "T2 sequence (Q96NY8 32-510)": "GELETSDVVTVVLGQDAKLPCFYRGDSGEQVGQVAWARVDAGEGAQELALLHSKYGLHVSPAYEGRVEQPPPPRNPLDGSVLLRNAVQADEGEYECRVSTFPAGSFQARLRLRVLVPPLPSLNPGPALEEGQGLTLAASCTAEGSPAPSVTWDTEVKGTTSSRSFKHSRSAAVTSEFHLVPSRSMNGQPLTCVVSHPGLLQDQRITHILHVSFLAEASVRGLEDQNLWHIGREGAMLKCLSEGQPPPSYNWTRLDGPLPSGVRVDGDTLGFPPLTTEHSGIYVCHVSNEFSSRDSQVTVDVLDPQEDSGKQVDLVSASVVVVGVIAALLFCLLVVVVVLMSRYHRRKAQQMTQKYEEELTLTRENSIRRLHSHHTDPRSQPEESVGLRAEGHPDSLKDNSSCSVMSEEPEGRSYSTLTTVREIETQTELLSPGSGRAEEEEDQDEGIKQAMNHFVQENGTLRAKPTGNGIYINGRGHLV", "test": "Flow cytometry on normal differentiated human keratinocytes (NHEK)", "settings": "dose range 8 PM-33 nM", "method": "FIG. 15: Differential binding of Ch-15A7.5 and its humanized variants to Nectin-4 expressed by tumor cell line and normal differentiated human keratinocytes. Detection by flow cytometry.\nFlow cytometry analysis of TNBC cell line (SUM190, upper panels) and normal differentiated (0.1 mM CaCl2) human keratinocytes (NHEK, lower panels) using a dose range (8 PM-33 nM) of Ch-5A12.2, Ch-15A7.5 and its humanized variants 15A7.5-H1L2, -H1L3, -H2L2, -H2L3, -H3LO, -H3L2, -H3L3. Cells were then stained with phycoerythrin conjugate goat anti human Fc antibody. Normalized mean fluorescence intensities are shown. Non-linear curve fitting (4 parameters) was done with GraphPad Prism 9 software.\nCells or cell lines (10,000-50,000) expressing Nectin-4 (naturally or transfected) were incubated with dose range of the indicated antibodies. After washing, cells were then stained with phycoerythrin-conjugated goat anti human antibody (5 μg/mL) Jackson Immuno Research). After fixation, cells were stained with a viability dye (e780, Invitrogen) before flow cytometry acquisition."}}}
{"molecule": "Ch-15A7.5: chimeric antibody of 15A7.5 with Fc-silent human Fc (antibody, V domains shown) VH: EVKLVESGGGLVQPGGSRKLSCAASGFTFSNYGMAWVRQAPGKGPEWVAFISNLAYGINYADTVTGRFTISRENAKNTLYLEMRSLRSEDTAMYYCARGARATGWFAYWGQGTLVTVSA VL: DIVMTQSQKFMSTSIGDRVSVTCKASQNVDTHVAWYQEKPGQSPKALIYSASYRYSGVPDRFTGSGSGTDFTLTISNVQSEDLADYFCQQYNSYPLTFGGGTKLEIK", "values": [{"measurement": "recognition of human Nectin-4", "setting": "[1]", "result": "recognize human Nectin-4"}, {"measurement": "recognition of Nectin-4 IgV-like domain", "setting": "[2]; Nec4-V coated", "result": "recognizes IgV-like domain of human Nectin-4"}, {"measurement": "recognition of Nectin-4 extracellular domain", "setting": "[2]; Nec4-VCC coated", "result": "recognizes the Nectin-4 extracellular domain"}, {"measurement": "recognition of Nectin-1 extracellular domain", "setting": "[3]", "result": "not the Nectin-1 extracellular domain"}, {"measurement": "apparent EC50 towards keratinocytes in comparison to that of Ch-5A12.2", "setting": "[4]", "result": "much lower apparent EC50"}]}
